The target of assay [1] is T1, integrin α4β1 (coated, direct ELISA) (UniProt P13612 34-970; P05556 21-728, limits assumed).
T1 construct: Coated on the plate in the direct ELISA; also called α4β1 integrin; VLA-4
Kind of assay: direct ELISA, coated integrin α4β1, anti-human IgG-HRP detection, 4PL fit. The procedure: The principle of this method is to incubate a coated constant amount of integrin α4β1 with serially diluted natalizumab samples. The amount of bound natalizumab is subsequently determined by a mouse, monoclonal anti-human IgG antibody, which is conjugated to horseradish peroxidase (HRP). HRP converts the chromogenic substrate TMB (3,3′,5,5′-tetramethylbenzidine) into a colored dye. The color reaction is measured spectrophotometrically at wavelength 450 nm.
Data are analyzed applying 4 Parameter Logistic nonlinear regression model (4PL), which is commonly used for curve-fitting analysis in bioassays or immunoassays such as ELISAs or dose-response curves. Final result is expressed as a Relative Potency (REP) of tested sample in relation to interim reference standard established at Polpharma site. The method variability was determined at the level of 7% coefficient variation (CV) of intermediate precision within the qualification exercise.
In general terms: An ELISA detects its analyte on a solid surface through an enzyme-linked reagent.

Another assay addresses HIS-tagged α4β1 integrin (UniProt P13612 34-970; P05556 21-728, limits assumed). Kind of assay: competitive ELISA, coated VCAM-1 as competitor, HIS-tagged α4β1 integrin in solution, 4PL fit. The procedure:
Constant amount of the coated VCAM-1 protein is incubated with serial dilutions of natalizumab in the presence of HIS-tagged α4β1 integrin. Solid-phase associated VCAM-1 and soluble natalizumab now compete for binding to α4β1 integrin. The higher the natalizumab concentration the more α4β1 Integrin is inhibited from binding to VCAM-1. The highest signal result is observed when no natalizumab is present. Bound HIS-tagged α4β1 integrin is subsequently detected with a biotinylated anti-HIS-tag antibody, POD-conjugated Streptavidin and a TMB-substrate reaction at the end of the assay.
Data are analyzed with 4PL fitting model. Final result is expressed as a Relative Potency (REP) of tested sample in relation to reference standard. The method variability was determined at the level of 7% coefficient variation (CV) of intermediate precision within the qualification exercise. Additionally accuracy, linearity and specificity were tested.

In a further assay the target is α4β7 integrin (UniProt P13612 34-970; P26010 20-723). The assay can be described thus: competitive ELISA, coated α4β7 integrin, Fc-tagged MadCAM-1 as competitor, bound antibody detected with anti-human IgG-POD, 4PL fit. The procedure:
Constant amount of the coated α4β7 integrin is incubated with serial dilutions of natalizumab in the presence of Fc-tagged MadCAM-1 receptor. natalizumab and MadCAM-1 receptor now compete for binding to solid-phase associated α4β7 integrin. The higher the natalizumab concentration the more MadCAM-1 is inhibited from binding to α4β7 integrin. The lowest signal result is observed when no natalizumab is present. Bound natalizumab is subsequently detected with a POD-conjugated anti-human IgG antibody and a TMB-substrate reaction at the end of the assay.
Data are analyzed with 4PL fitting model. Final result is expressed as a Relative Potency (REP) of tested sample in relation to reference standard. The method variability was determined at the level of 8% coefficient variation (CV) of intermediate precision within the qualification exercise. Additionally accuracy, linearity and specificity were tested.

B1: natalizumab biosimilar antibody produced by CHO DG44 Clone 1 (antibody, human IgG4, kappa, V domains shown)
VH: QVQLVQSGAEVKKPGASVKVSCKASGFNIKDTYIHWVRQAPGQRLEWMGRIDPANGYTKYDPKFQGRVTITADTSASTAYMELSSLRSEDTAVYYCAREGYYGNYGVYAMDYWGQGTLVTVSS
VL: DIQMTQSPSSLSASVGDRVTITCKTSQDINKYMAWYQQTPGKAPRLLIHYTSALQPGIPSRFSGSGSGRDYTFTISSLQPEDIATYYCLQYDNLWTFGQGTKVEIKR
notes: Tested product from the clone selection step; full-length IgG4
Turning to B1, the “Relative Potency (REP), average” value in assay [1] is 0.769 relative to interim reference standard; with HIS-tagged α4β1 integrin it was 0.829 relative to reference standard; with α4β7 integrin, 0.81 relative to reference standard. In addition, the “Relative Potency (REP), max” value in assay [1] is 0.847 relative to interim reference standard; with HIS-tagged α4β1 integrin it was 0.842 relative to reference standard; with α4β7 integrin it was 0.857 relative to reference standard. In addition, the “Relative Potency (REP), min” value was 0.723 relative to interim reference standard in assay [1], 0.805 relative to reference standard with HIS-tagged α4β1 integrin and 0.738 relative to reference standard with α4β7 integrin.

B2: natalizumab biosimilar antibody produced by CHO DG44 Clone 2 (antibody, human IgG4, kappa, V domains shown)
VH: B1 VH
VL: B1 VL
notes: as for B1
For the molecule B2, the “Relative Potency (REP), average” value in assay [1] is 0.679 relative to interim reference standard; with HIS-tagged α4β1 integrin it was 0.903 relative to reference standard; with α4β7 integrin, 0.831 relative to reference standard. Moreover, the “Relative Potency (REP), max” value in assay [1] was 0.732 relative to interim reference standard; with HIS-tagged α4β1 integrin it was 0.93 relative to reference standard; with α4β7 integrin it was 0.858 relative to reference standard. Moreover, the results for the “Relative Potency (REP), min” value (in assay [1]; with HIS-tagged α4β1 integrin; with α4β7 integrin) were 0.611 relative to interim reference standard, 0.85 relative to reference standard and 0.79 relative to reference standard, respectively.

B3: natalizumab reference product (9 batches) (antibody, human IgG4, kappa, V domains shown)
VH: B1 VH
VL: B1 VL
As to B3, in the assay with HIS-tagged α4β1 integrin, the “Relative Potency (REP), average” value was 1.02 relative to reference standard; the “Relative Potency (REP), max” value is 1.15 relative to reference standard; the “Relative Potency (REP), min” value was 0.935 relative to reference standard. In the assay with α4β7 integrin, the “Relative Potency (REP), average” value is 0.998 relative to reference standard; the “Relative Potency (REP), max” value is 1.08 relative to reference standard; the “Relative Potency (REP), min” value is 0.922 relative to reference standard.

The values are drawn from patent publication US20190225694A1 (ZAKLADY FARMACEUTYCZNE POLPHARMA, published 2019).
